Results taken from patent publication US20130165389A1 (AMUNIX OPERATING, published 2013).

Experiments:
human CD40-Fc fusion = biological target: T1, human CD40-Fc fusion (human, UniProt P25942 21-193); assay: ELISA, dilution series of cleared lysate on coated human CD40-Fc; Kd from EC50 and an estimated 10 µM in the lysate
T1 construct: Coated at 100 ng/well; not shown: Fc part of the fusion

human IL6R = biological target: T2, human IL6R (human, UniProt P08887 20-358, limits assumed); assay: ELISA, coated human IL6R, biotinylated anti-XTEN antibody and streptavidin-HRP
T2 construct: also called IL-6 receptor
T2 sequence (looked up): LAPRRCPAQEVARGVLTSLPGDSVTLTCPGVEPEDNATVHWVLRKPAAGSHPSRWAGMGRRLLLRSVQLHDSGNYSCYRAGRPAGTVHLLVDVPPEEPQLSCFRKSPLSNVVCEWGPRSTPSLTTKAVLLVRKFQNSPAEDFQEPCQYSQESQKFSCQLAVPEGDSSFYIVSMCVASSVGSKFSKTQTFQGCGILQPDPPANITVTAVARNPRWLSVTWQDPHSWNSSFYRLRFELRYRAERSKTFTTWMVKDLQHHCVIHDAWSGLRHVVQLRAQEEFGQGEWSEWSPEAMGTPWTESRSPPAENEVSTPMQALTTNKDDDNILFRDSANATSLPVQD

T1 sequence (P25942 21-193 limits assumed): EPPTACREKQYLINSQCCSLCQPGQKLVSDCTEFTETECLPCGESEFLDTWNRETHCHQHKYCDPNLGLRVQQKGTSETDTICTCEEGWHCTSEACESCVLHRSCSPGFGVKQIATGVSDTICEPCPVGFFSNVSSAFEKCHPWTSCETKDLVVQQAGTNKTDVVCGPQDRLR

B1: anti-CD40-AE864, AC384 (scFv)
scFv: MAEIVLTQSPATLSLSPGERATLSCRASQSISDYLHWYQQKPGQAPRLLIYYASHSISGIPARFSGSGSGTDFTLTISSLEPEDFAVYYCQHGHSYPWTFGGGTKVEIKTGSGEGSEGEGGGEGSEGEGSGEGGEGEGSGTQVQLVQSGSELKKPGASVKVSCKASGYAFTTTGMQWVRQAPGQGLEWMGWINTHSGVPKYVEDFKGRFVFSLDTSVSTAYLQISSLKAEDTAVYYCARSGNGNYDLAYFKYWGQGTLVTVSSGGSPAGSPTSTEEGTSESATPESGPGTSTEPSEGSAPGSPAGSPTSTEEGTSTEPSEGSAPGTSTEPSEGSAPGTSESATPESGPGSEPATSGSETPGSEPATSGSETPGSPAGSPTSTEEGTSESATPESGPGTSTEPSEGSAPGTSTEPSEGSAPGSPAGSPTSTEEGTSTEPSEGSAPGTSTEPSEGSAPGTSESATPESGPGTSTEPSEGSAPGTSESATPESGPGSEPATSGSETPGTSTEPSEGSAPGTSTEPSEGSAPGTSESATPESGPGTSESATPESGPGSPAGSPTSTEEGTSESATPESGPGSEPATSGSETPGTSESATPESGPGTSTEPSEGSAPGTSTEPSEGSAPGTSTEPSEGSAPGTSTEPSEGSAPGTSTEPSEGSAPGTSTEPSEGSAPGSPAGSPTSTEEGTSTEPSEGSAPGTSESATPESGPGSEPATSGSETPGTSESATPESGPGSEPATSGSETPGTSESATPESGPGTSTEPSEGSAPGTSESATPESGPGSPAGSPTSTEEGSPAGSPTSTEEGSPAGSPTSTEEGTSESATPESGPGTSTEPSEGSAPGTSESATPESGPGSEPATSGSETPGTSESATPESGPGSEPATSGSETPGTSESATPESGPGTSTEPSEGSAPGSPAGSPTSTEEGTSESATPESGPGSEPATSGSETPGTSESATPESGPGSPAGSPTSTEEGSPAGSPTSTEEGTSTEPSEGSAPGTSESATPESGPGTSESATPESGPGTSESATPESGPGSEPATSGSETPGSEPATSGSETPGSPAGSPTSTEEGTSTEPSEGSAPGTSTEPSEGSAPGSEPATSGSETPGTSESATPESGPGTSTEPSEGSAP
notes: Tested as cleared E. coli lysate, not purified; also called aCD40-XTEN; pBC0009
**Q.** With B1 as the binder, how does the Kd (human CD40-Fc fusion) read?
**A.** ~50 nM

B2: anti-CD40-AE864, AC385 (scFv)
scFv: MAEIVLTQSPATLSLSPGERATLSCRASQSISDYLHWYQQKPGQAPRLLIYYASHSISGIPARFSGSGSGTDFTLTISSLEPEDFAVYYCQHGHSYPWTFGGGTKVEIKTGSGEGSEGEGGGEGSEGEGSGEGGEGEGSGTQVQLVQSGSELKKPGASVKVSCKASGYAFTTTGMQWVRQAPGQGLEWMGWINTHSGVPKYVEDFKGRFVFSLDTSVSTAYLQISSLKAEDTAVYYCARSGNGNYDLAYFKYWGQGTLVTVSSGGSPAGSPTSTEEGTSESATPESGPGTSTEPSEGSAPGSPAGSPTSTEEGTSTEPSEGSAPGTSTEPSEGSAPGTSESATPESGPGSEPATSGSETPGSEPATSGSETPGSPAGSPTSTEEGTSESATPESGPGTSTEPSEGSAPGTSTEPSEGSAPGSPAGSPTSTEEGTSTEPSEGSAPGTSTEPSEGSAPGTSESATPESGPGTSTEPSEGSAPGTSESATPESGPGSEPATSGSETPGTSTEPSEGSAPGTSTEPSEGSAPGTSESATPESGPGTSESATPESGPGSPAGSPTSTEEGTSESATPESGPGSEPATSGSETPGTSESATPESGPGTSTEPSEGSAPGTSTEPSEGSAPGTSTEPSEGSAPGTSTEPSEGSAPGTSTEPSEGSAPGTSTEPSEGSAPGSPAGSPTSTEEGTSTEPSEGSAPGTSESATPESGPGSEPATSGSETPGTSESATPESGPGSEPATSGSETPGTSESATPESGPGTSTEPSEGSAPGTSESATPESGPGSPAGSPTSTEEGSPAGSPTSTEEGSPAGSPTSTEEGTSESATPESGPGTSTEPSEGSAPGTSESATPESGPGSEPATSGSETPGTSESATPESGPGSEPATSGSETPGTSESATPESGPGTSTEPSEGSAPGSPAGSPTSTEEGTSESATPESGPGSEPATSGSETPGTSESATPESGPGSPAGSPTSTEEGSPAGSPTSTEEGTSTEPSEGSAPGTSESATPESGPGTSESATPESGPGTSESATPESGPGSEPATSGSETPGSEPATSGSETPGSPAGSPTSTEEGTSTEPSEGSAPGTSTEPSEGSAPGSEPATSGSETPGTSESATPESGPGTSTEPSEGSAP
notes: Tested as cleared E. coli lysate, not purified; also called aCD40-XTEN; pBC0010
**Q.** B2 was tested. Which Kd (human CD40-Fc fusion) did it give?
**A.** ~50 nM

B3: aIL6R scFv-AE864, AC342 (scFv)
scFv: MADIQMTQSPSSLSASVGDRVTITCRASQDISSYLNWYQQKPGKAPKLLIYYTSRLHSGVPSRFSGSGSGTDFTFTISSLQPEDIATYYCQQGNTLPYTFGQGTKVEIKTGSGEGSEGEGGGEGSEGEGSGEGGEGEGSGSQVQLQESGPGLVRPSQTLSLTCTVSGYSITSDHAWSWVRQPPGRGLEWIGYISYSGITTYNPSLKSRVTMLRDTSKNQFSLRLSSVTAADTAVYYCARSLARTTAMDYWGQGSLVTVSSGSPGSPAGSPTSTEEGTSESATPESGPGTSTEPSEGSAPGSPAGSPTSTEEGTSTEPSEGSAPGTSTEPSEGSAPGTSESATPESGPGSEPATSGSETPGSEPATSGSETPGSPAGSPTSTEEGTSESATPESGPGTSTEPSEGSAPGTSTEPSEGSAPGSPAGSPTSTEEGTSTEPSEGSAPGTSTEPSEGSAPGTSESATPESGPGTSTEPSEGSAPGTSESATPESGPGSEPATSGSETPGTSTEPSEGSAPGTSTEPSEGSAPGTSESATPESGPGTSESATPESGPGSPAGSPTSTEEGTSESATPESGPGSEPATSGSETPGTSESATPESGPGTSTEPSEGSAPGTSTEPSEGSAPGTSTEPSEGSAPGTSTEPSEGSAPGTSTEPSEGSAPGTSTEPSEGSAPGSPAGSPTSTEEGTSTEPSEGSAPGTSESATPESGPGSEPATSGSETPGTSESATPESGPGSEPATSGSETPGTSESATPESGPGTSTEPSEGSAPGTSESATPESGPGSPAGSPTSTEEGSPAGSPTSTEEGSPAGSPTSTEEGTSESATPESGPGTSTEPSEGSAPGTSESATPESGPGSEPATSGSETPGTSESATPESGPGSEPATSGSETPGTSESATPESGPGTSTEPSEGSAPGSPAGSPTSTEEGTSESATPESGPGSEPATSGSETPGTSESATPESGPGSPAGSPTSTEEGSPAGSPTSTEEGTSTEPSEGSAPGTSESATPESGPGTSESATPESGPGTSESATPESGPGSEPATSGSETPGSEPATSGSETPGSPAGSPTSTEEGTSTEPSEGSAPGTSTEPSEGSAPGSEPATSGSETPGTSESATPESGPGTSTEPSEGSAPG
notes: Single-chain scFv-XTEN fusion expressed in E. coli; also called aIL6R-XTEN
**Q.** Which EC50 (human IL6R) does the source give for B3 here?
**A.** 5 nM
